Source: publication PMC11549086 (2024)

Assays:
[1] = target: T1, taxol-stabilized microtubules (tubulin) (Sus scrofa, UniProt P02550); test: TIRF microscopy, Hill fit (150 mM salt)
T1 chain 1: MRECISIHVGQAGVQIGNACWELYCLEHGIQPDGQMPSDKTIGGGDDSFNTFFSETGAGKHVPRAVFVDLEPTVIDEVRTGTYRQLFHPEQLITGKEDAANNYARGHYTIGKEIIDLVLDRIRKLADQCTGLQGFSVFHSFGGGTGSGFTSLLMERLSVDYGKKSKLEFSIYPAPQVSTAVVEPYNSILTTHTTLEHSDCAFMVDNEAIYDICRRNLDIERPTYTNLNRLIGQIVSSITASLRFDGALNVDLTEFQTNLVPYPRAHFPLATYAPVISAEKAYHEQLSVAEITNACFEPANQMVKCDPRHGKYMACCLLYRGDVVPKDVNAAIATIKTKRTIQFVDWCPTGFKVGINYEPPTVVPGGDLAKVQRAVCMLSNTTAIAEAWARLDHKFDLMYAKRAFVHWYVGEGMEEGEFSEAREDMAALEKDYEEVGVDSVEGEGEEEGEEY
T1 chain 2: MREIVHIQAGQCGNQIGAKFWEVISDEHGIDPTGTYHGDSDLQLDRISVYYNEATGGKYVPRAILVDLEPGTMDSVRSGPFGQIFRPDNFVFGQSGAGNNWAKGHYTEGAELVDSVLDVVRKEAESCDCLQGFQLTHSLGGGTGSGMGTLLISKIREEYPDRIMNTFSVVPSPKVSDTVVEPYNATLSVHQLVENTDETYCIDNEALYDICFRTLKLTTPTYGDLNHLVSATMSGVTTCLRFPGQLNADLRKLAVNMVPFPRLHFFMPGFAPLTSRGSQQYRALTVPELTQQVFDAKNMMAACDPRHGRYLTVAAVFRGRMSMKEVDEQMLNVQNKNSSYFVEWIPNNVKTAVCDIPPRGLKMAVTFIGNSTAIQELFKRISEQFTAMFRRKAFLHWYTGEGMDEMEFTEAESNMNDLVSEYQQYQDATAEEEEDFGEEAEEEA

[2] = target: T1, taxol-stabilized microtubules (tubulin); test: TIRF microscopy, Hill fit (no added salt)

- Kd [1]: ~300 nM
- Kd [2]: ~29 nM
B1: HURP 1-285 (protein)
chain: MSSSHFASRHRKDISTEMIRTKIAHRKSLSQKENRHKEYERNRHFGLKDVNIPTLEGRILVELDETSQGLVPEKTNVKPRAMKTILGDQRKQMLQKYKEEKQLQKLKEQREKAKRGIFKVGRYRPDMPCFLLSNQNAVKAEPKKAIPSSVRITRSKAKDQMEQTKIDNESDVRAIRPGPRQTSEKKVSDKEKKVVQPVMPTSLRMTRSATQAAKQVPRTVSSTTARKPVTRAANENEPEGKVPSKGRPAKNVETKPDKGISCKVDSEENTLNSQTNATSGMNPDG
modifications: C-terminal eGFP fusion, taxol-stabilized microtubules
